Consider six molecules from patent publication US20230063965A1 (YEDA RESEARCH AND DEVELOPMENT, published 2023).

A word on the Kd: it is the concentration at which binding is half-saturated. Usually EC50 (read off the curve) stands for the concentration needed to bring the measured effect to its halfway point.

The target in assay [1] is T1, hFcγRIIB (human, UniProt P31994 43-217, limits assumed).
T1 construct: also called CD32B; huFcγRIIB
T1 sequence (looked up): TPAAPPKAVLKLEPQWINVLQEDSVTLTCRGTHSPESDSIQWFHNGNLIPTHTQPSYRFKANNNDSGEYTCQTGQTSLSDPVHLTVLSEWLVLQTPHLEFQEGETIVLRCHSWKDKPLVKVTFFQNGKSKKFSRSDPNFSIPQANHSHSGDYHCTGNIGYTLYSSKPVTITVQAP
In words: SPR, immobilized FcγRs, soluble IgGs.

Another assay deals with T2, hFcγRIIA R131 (human, UniProt P12318 34-218, limits assumed).
T2 construct: R131 allotype as printed (131 is mature-protein numbering)
T2 sequence (looked up): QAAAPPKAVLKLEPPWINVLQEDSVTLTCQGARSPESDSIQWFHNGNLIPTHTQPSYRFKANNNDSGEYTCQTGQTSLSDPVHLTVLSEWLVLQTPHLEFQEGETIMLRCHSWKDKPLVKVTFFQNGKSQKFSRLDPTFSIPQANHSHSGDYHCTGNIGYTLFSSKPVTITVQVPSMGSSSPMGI
Put plainly: SPR, immobilized FcγRs, soluble IgGs. On the technique in general: In SPR one partner is held on a chip, and binding of the other changes the refractive index at the surface.

Assay [2] has as its target T3, hFcγRII^F158 (so in the source); read as hFcγRIIIA F158) (human, UniProt P08637 17-208).
T3 construct: The head is printed 'hFcγRII^F158'; also called huFcγRIIIA
In words: SPR, immobilized FcγRs, soluble IgGs.

Another assay concerns the target T4, FcgR1 (human, UniProt P12314).
T4 construct: soluble ectodomain; also called human FcγRI soluble ectodomain (ELISA); FcγRI
Put plainly: FcγR binding ELISA, plate-bound human FcγRI soluble ectodomain, serially diluted IgG, Δabsorbance 450 nm; panel FcgR1. The method, then:
(§1) ELISA plates (Nunc) were coated overnight at 4° C. with recombinant PD-L1 (1 μg/mL/well). All sequential steps were performed at room temperature in 2% BSA. After being washed, the plates were blocked for 1 hr with 1×PBS with 2% Bovine serum Albumin and were subsequently incubated for 1 hr with serially diluted IgGs. After washing, plates were incubated for 1 hr with HRP-conjugated anti-mouse IgG (Jackson ImmunoResearch). Detection was performed by TMB Soluble Reagent (ScyTek Laboratories) and reactions stopped with the addition of 0.18 M sulfuric acid. Absorbance at 450 nm was immediately recorded using a SpectraMax Plus spectrophotometer (Molecular Devices) and background absorbance from negative control samples was subtracted. […] After washing, plates were incubated for 1 hr with streptavidin-HRP (Jackson ImmunoResearch). (2) For FcγR binding ELISA, human FcγRs soluble ectodomains (2 μg/ml/well) were immobilized to the plate. After being washed, the plates were blocked for 40 minutes with 1×PBS with 10% Bovine serum Albumin and were subsequently incubated for 2 hours with serially diluted IgGs.
(In general: ELISA stands for enzyme-linked immunosorbent assay.)

For assay [3], the target named is T5, human FcγRIIIA soluble ectodomain (ELISA) (human, UniProt P08637 17-208).
T5 construct: extracellular domain
T5 sequence (P08637 17-208): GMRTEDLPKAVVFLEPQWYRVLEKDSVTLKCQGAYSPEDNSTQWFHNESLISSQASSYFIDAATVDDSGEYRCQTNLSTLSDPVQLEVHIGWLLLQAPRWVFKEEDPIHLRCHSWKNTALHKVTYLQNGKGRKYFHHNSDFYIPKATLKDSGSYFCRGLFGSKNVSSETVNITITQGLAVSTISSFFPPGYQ
In words: FcγR binding ELISA, plate-bound human FcγRIIIA soluble ectodomain, serially diluted IgG, Δabsorbance 450 nm; panel FcgR3A. The method, then:
as §1

In assay [4] the target is T1, hFcγRIIB. Put plainly: FcγR binding ELISA, plate-bound human FcγRIIB soluble ectodomain, serially diluted IgG, Δabsorbance 450 nm; panel Fcg2B. The protocol: as §1
In assay [5] the target is T6, human FcγRIIIB soluble ectodomain (ELISA) (human, UniProt O75015 17-200, limits assumed).
T6 construct: extracellular domain
T6 sequence (O75015 17-200 limits assumed): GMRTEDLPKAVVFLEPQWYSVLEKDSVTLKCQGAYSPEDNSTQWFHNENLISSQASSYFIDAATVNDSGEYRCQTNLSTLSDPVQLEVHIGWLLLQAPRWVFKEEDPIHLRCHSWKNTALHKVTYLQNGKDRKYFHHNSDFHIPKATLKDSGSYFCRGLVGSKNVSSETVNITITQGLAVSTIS
Put plainly: FcγR binding ELISA, plate-bound human FcγRIIIB soluble ectodomain, serially diluted IgG, Δabsorbance 450 nm; panel Fcg3B. The method, then:
as §1

T3 sequence (P08637 17-208 limits assumed): as the sequence (P08637 17-208) above
T4 sequence (P12314 16-292 limits assumed): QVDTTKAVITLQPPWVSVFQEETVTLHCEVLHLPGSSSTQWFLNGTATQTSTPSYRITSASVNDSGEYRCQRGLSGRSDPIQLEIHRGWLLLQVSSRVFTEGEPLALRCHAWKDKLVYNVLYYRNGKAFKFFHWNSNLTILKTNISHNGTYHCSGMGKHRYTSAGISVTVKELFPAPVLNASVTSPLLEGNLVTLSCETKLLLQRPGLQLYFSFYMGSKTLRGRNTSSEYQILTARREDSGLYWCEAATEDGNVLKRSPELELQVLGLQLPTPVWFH

B1: Avelumab Afucosylated Fc variant (antibody, human IgG1, lambda)
heavy: not shown
light: QSALTQPASVSGSPGQSITISCTGTSSDVGGYNYVSWYQQHPGKAPKLMIYDVSNRPSGVSNRFSGSKSGNTASLTISGLQAEDEADYYCSSYTSSSTRVFGTGTKVTVLGQPKANPTVTLFPPSSEELQANKATLVCLISDFYPGAVTVAWKADGSPVKAGVETTKPSKQSNNKYAASSYLSLTPEQWKSHRSYSCQVTHEGSTVEKTVAPTECS
modifications: afucosylated Fc glycan (N297, EU); fucose content of about 28%
notes: also called non-fucosylated Fc glycan
Regarding B1, the “Fold (KD(IgG1)/KD(Fc variant))” value was determined as 1.1 fold in the assay with hFcγRIIB [1], 1 fold in the assay with hFcγRIIA R131 and 11.6 fold in assay [2]. The values for the Kd (with hFcγRIIB [1]; with hFcγRIIA R131; in assay [2]) were 2800 nM, 1160 nM and 578 nM, respectively. The binding result with FcgR1 is “binds”. The concentration giving a half-maximal response (EC50 (read off the curve)) in assay [3] is about 2 µg/mL.

B2: Avelumab IgG1 (wild type human IgG1) (antibody)
heavy: not shown
light: B1 light
notes: Made recombinantly in Expi293 cells
Turning to B2, the “Fold (KD(IgG1)/KD(Fc variant))” value (with hFcγRIIB [1]; in the assay with hFcγRIIA R131; in assay [2]) was 1 fold throughout. Further, the dissociation constant Kd with hFcγRIIB [1] came to 3010 nM; with hFcγRIIA R131 it was 1160 nM; in assay [2], 6700 nM. The binding result with FcgR1 was “binds”.

B3: Avelumab GASDALIE (G236A/S239D/A330L/I332E) (antibody, human IgG1, lambda)
heavy: EVQLLESGGGLVQPGGSLRLSCAASGFTFSSYIMMWVRQAPGKGLEWVSSIYPSGGITFYADTVKGRFTISRDNSKNTLYLQMNSLRAEDTAVYYCARIKLGTVTTVDYWGQGTLVTVSSASTKGPSVFPLAPSSKSTSGGTAALGCLVKDYFPEPVTVSWNSGALTSGVHTFPAVLQSSGLYSLSSVVTVPSSSLGTQTYICNVNHKPSNTKVDKKVEPKSCDKTHTCPPCPAPELLAGPDVFLFPPKPKDTLMISRTPEVTCVVVDVSHEDPEVKFNWYVDGVEVHNAKTKPREEQYNSTYRVVSVLTVLHQDWLNGKEYKCKVSNKALPLPEEKTISKAKGQPREPQVYTLPPSRDELTKNQVSLTCLVKGFYPSDIAVEWESNGQPENNYKTTPPVLDSDGSFFLYSKLTVDKSRWQQGNVFSCSVMHEALHNHYTQKSLSLSPGK
light: B1 light
notes: also called GASDLIE
Consider B3, for which the “Fold (KD(IgG1)/KD(Fc variant))” value with hFcγRIIB [1] was 14 fold; in the assay with hFcγRIIA R131, 24.5 fold; in assay [2], 29.5 fold. The results for the Kd (with hFcγRIIB [1]; with hFcγRIIA R131; in assay [2]) were 230 nM, 47 nM and 227 nM, respectively.

B4: Avelumab N297A (FcγR-binding null IgG1) (antibody, name in EU numbering)
heavy: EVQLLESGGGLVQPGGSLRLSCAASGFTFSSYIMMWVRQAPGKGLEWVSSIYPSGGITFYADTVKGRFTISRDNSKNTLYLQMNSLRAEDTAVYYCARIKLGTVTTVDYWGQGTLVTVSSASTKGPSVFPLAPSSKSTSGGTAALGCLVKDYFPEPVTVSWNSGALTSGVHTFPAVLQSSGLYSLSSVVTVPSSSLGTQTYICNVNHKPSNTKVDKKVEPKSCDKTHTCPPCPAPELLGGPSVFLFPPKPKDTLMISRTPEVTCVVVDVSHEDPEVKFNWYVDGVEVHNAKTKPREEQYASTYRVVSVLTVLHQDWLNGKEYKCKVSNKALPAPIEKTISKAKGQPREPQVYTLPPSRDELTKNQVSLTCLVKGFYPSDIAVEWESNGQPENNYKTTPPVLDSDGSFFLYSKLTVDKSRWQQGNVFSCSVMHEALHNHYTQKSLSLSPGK
light: B1 light
notes: also called Fc-silent (N297A) variant
For B4, the binding result is recorded as “no binding” in the assay with hFcγRIIA R131; “no binding” in assay [2]; “binds” with FcgR1; “no binding (tested: log 2 (100 µg/ml))” with hFcγRIIB [4]; “no binding (tested: log 2 (100 µg/ml))” in assay [5]; “no binding (tested: log 1.2 (about 16 µg/ml))” in assay [3].

B5: Avelumab G236A (antibody, human IgG1, lambda)
heavy: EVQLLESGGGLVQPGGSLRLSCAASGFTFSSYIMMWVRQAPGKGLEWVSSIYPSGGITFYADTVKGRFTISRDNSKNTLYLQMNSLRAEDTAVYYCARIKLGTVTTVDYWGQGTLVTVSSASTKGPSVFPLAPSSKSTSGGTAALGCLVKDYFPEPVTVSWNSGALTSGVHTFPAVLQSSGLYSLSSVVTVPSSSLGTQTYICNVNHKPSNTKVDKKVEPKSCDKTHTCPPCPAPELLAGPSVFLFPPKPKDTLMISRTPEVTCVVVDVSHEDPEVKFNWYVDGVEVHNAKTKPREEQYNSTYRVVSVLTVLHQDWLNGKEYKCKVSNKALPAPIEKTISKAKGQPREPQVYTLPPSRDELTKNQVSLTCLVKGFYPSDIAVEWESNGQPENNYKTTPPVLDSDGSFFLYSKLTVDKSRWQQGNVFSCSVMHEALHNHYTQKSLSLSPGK
light: B1 light
Take B5: the “Fold (KD(IgG1)/KD(Fc variant))” value is 0.7 fold in the assay with hFcγRIIB [1], 9.3 fold in the assay with hFcγRIIA R131 and 1.7 fold in assay [2]. The Kd with hFcγRIIB [1] turned out to be 4380 nM; with hFcγRIIA R131 it was 120 nM; in assay [2] it was 3900 nM.

B6: Avelumab ALIE (A330L/I332E) (antibody, human IgG1, lambda)
heavy: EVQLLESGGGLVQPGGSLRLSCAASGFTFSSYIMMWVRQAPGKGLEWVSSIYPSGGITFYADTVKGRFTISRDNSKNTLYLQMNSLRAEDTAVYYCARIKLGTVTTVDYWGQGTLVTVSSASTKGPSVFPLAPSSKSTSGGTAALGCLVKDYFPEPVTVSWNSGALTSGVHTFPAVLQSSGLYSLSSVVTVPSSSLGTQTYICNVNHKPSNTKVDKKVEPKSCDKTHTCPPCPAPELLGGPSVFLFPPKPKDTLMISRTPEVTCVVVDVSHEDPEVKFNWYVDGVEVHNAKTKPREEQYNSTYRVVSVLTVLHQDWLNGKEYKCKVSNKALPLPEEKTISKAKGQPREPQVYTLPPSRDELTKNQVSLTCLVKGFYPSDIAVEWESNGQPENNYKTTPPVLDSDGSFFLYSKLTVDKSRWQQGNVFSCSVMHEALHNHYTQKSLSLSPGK
light: B1 light
Consider B6, for which the “Fold (KD(IgG1)/KD(Fc variant))” value with hFcγRIIB [1] was 1.1 fold; with hFcγRIIA R131 it was 1.2 fold; in assay [2], 5.4 fold. For the same molecule, the figures for the dissociation constant (Kd) in the assay with hFcγRIIB [1] and with hFcγRIIA R131 were 2800 nM and 950 nM, respectively.
